Measured values taken from the supplement of paper PMC9732359.
± gives the uncertainty stated by the source.

Experiment: protein stability index of a GFP-peptide fusion (yeast GPS) (PSI 1-4); higher = more stable; sorted into four equal gates, so the index is relative within each strain
Outline: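 Tiled 17-residue yeast protein peptides were fused downstream of GFP in a plasmid that also expresses Cherry, and the pooled library was carried in yeast. Mid-log cultures in leucine-free medium were sorted into four equal gates by GFP/Cherry fluorescence ratio, and plasmids from each gate were PCR-amplified and Illumina-sequenced, with reads assigned to strains by barcodes. The protein stability index for each peptide was each gate's read frequency times its gate number, summed.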

| Sequence | protein stability index (doa10∆) | protein stability index (pdr5∆) | protein stability index (san1∆) | protein stability index (ubr1∆) |
| --- | --- | --- | --- | --- |
| MDRDSESEEAETKDIRK [SRB4] | 3.21 ± 0.17 | 3.13 ± 0.14 | 2.62 ± 0.28 | 2.95 ± 0.16 |
| MDSKGKITIGIQRTTES [RGR1] | 3.44 ± 0.075 | 3.39 ± 0.066 | 3.33 ± 0.083 | 3.11 ± 0.075 |
| MEERDGAKFENIVHNFK [AAR2] | 3.09 ± 0.1 | 2.51 ± 0.097 | 2.41 ± 0.12 | 1.88 ± 0.056 |
| MEKDKLKNLLRSNFRVN [SNU114] | 1.99 ± 0.087 | 2.45 ± 0.08 | 2.46 ± 0.13 | 2.65 ± 0.087 |
| MENTLGEGSTVNASVDV [SWI3] |  |  |  | 3.54 ± 0.21 |
| METRINILLRERDSYKL [YIL149C/MLP2] | 1.96 ± 0.27 | 1.59 ± 0.11 | 1.2 ± 0.27 | 2.3 ± 0.15 |
| MFNDLNSMDISMFSGLD [MED2] | 3.18 ± 0.06 | 3.26 ± 0.054 | 3.15 ± 0.037 | 3.12 ± 0.052 |
| MFSPLVDSGSNDAMAGG [RPO21] | 3.3 ± 0.16 |  | 3.37 ± 0.26 |  |
| MGMDLYKTSKAAQDVWN [FAS1] | 3.08 ± 0.13 | 3.37 ± 0.16 | 3.08 ± 0.13 | 3.43 ± 0.077 |
| MIAKEVKTSPDAKKCIA [FAS1] | 1.71 ± 0.15 | 2.95 ± 0.28 | 2.8 ± 0.28 | 2.05 ± 0.12 |
| MIATNVAARGLDIPNVS [PRP28] | 2.58 ± 0.17 |  | 2.2 ± 0.16 |  |
| MIDLGFEDQVTNILTKV [PRP28] |  | 3.67 ± 0.25 | 2.88 ± 0.22 | 3.16 ± 0.19 |
| MIIFLKNYDATDKPFSS [CSI1] | 2.63 ± 0.059 | 2.85 ± 0.062 | 2.92 ± 0.05 | 2.92 ± 0.048 |
| MIYDDAHEISQGVYGAV [BRR2] | 3 ± 0.068 | 2.88 ± 0.051 | 2.83 ± 0.049 | 2.67 ± 0.045 |
| MKDRLVEWNDQVEKLGK [RPN9] | 3.4 ± 0.13 | 3.06 ± 0.1 | 3.36 ± 0.083 | 3.39 ± 0.085 |
| MKIQAGQLGLDDNDVPG [YLR018C/POM34] | 3.22 ± 0.19 | 3 ± 0.14 | 2.5 ± 0.21 | 3.11 ± 0.29 |
| MKNKAETTTEEDSENPS [ITC1] | 3.31 ± 0.19 | 3.27 ± 0.14 | 3.03 ± 0.13 | 3.31 ± 0.15 |
| MKQPYVFVKKHHELIKV [SSN2] | 1.33 ± 0.072 | 1.27 ± 0.051 | 1.21 ± 0.08 | 1.2 ± 0.051 |
| MLETAGFSMNNPYNIVP [SMC3] | 3.17 ± 0.11 | 3.18 ± 0.09 | 3.19 ± 0.07 | 3.09 ± 0.051 |
| MLGIRSSVKTCFKPMSL [RIP1] | 2.9 ± 0.074 | 3.05 ± 0.079 | 2.83 ± 0.057 | 2.9 ± 0.052 |
| MLGRAGRPRYDTFGEGI [BRR2] | 3.25 ± 0.12 | 2.81 ± 0.14 | 3.15 ± 0.087 | 3.31 ± 0.15 |
| MLKYRRLFIGDQNNKKM [SNF2] | 2.62 ± 0.097 | 2.82 ± 0.073 | 2.47 ± 0.094 | 2.63 ± 0.057 |
| MLMPKQERNKIHQYLFQ [RPS10B] | 2.76 ± 0.29 | 2.88 ± 0.17 | 2.89 ± 0.14 | 2.78 ± 0.1 |
| MLNLIDDVKNILNAKYT [RPN6] | 2.85 ± 0.18 | 2.57 ± 0.09 | 2.86 ± 0.061 | 2.86 ± 0.068 |
| MMQDPQMQQMAKQFGMG [SRP54] | 3.15 ± 0.039 | 2.93 ± 0.043 | 3.03 ± 0.031 | 2.75 ± 0.027 |
| MMTRRVVMAMYNPKMID [RET1] | 3.46 ± 0.15 | 3.37 ± 0.19 | 2.62 ± 0.29 | 3.05 ± 0.094 |

| Sequence | protein stability index (doa10∆) | protein stability index (pdr5∆) | protein stability index (san1∆) | protein stability index (ubr1∆) |
| --- | --- | --- | --- | --- |
| MMVSYPKIDEDDTWYNL [AAR2] | 3.29 ± 0.063 | 3.34 ± 0.06 | 3.25 ± 0.048 | 3.35 ± 0.045 |
| MNETLNLKVELKEQSEQ [SMC4] |  |  | 2.14 ± 0.29 | 3.42 ± 0.12 |
| MNGNSTNNEQLQQELAT [NUT2] | 3.2 ± 0.06 | 3.15 ± 0.075 | 3.1 ± 0.053 | 3.07 ± 0.062 |
| MNRRKIAMPKRRMAFKP [YLR335W/NUP2] | 2.71 ± 0.076 | 2.35 ± 0.14 | 2.91 ± 0.071 | 3.13 ± 0.13 |
| MNTTLGSIGSRKYSFNY [YAR002W/NUP60] | 1.75 ± 0.06 | 2.29 ± 0.066 | 1.87 ± 0.095 | 1.41 ± 0.041 |
| MNTVPFTSAPIEVTIGI [AAR2] | 1.49 ± 0.092 | 2.01 ± 0.12 | 1.47 ± 0.22 | 1.64 ± 0.083 |
| MPFWKFFMKNFPFVLKV [SRB8] | 2.8 ± 0.23 | 1.99 ± 0.11 | 2.03 ± 0.12 | 2.04 ± 0.1 |
| MPGVSVRDVAAQDFINA [RPS19A] | 1.81 ± 0.12 | 1.31 ± 0.12 |  | 1.16 ± 0.11 |
| MPKKRASNGRNKKGRGH [RPS26A] | 3.3 ± 0.17 | 3.43 ± 0.19 | 2.82 ± 0.24 | 3.5 ± 0.083 |
| MSANGFAADGDALVKRF [PRE7] | 3.35 ± 0.26 | 3.4 ± 0.23 | 2.9 ± 0.21 | 3.41 ± 0.053 |
| MSAVPSVQTFGKKKSAT [RPS16A] | 1.45 ± 0.1 | 1.32 ± 0.15 | 1.26 ± 0.26 | 1.22 ± 0.13 |
| MSDAVTIRTRKVISNPL [RPS24A] | 2.78 ± 0.23 | 2.69 ± 0.13 | 2.97 ± 0.13 | 2.23 ± 0.14 |
| MSDLFTFDWFIKTRTVH [ISW2] | 2.88 ± 0.099 | 3.17 ± 0.099 | 2.76 ± 0.093 | 3.21 ± 0.072 |
| MSGSFWTSTQRHHWQYT [SSN8] | 2.07 ± 0.14 | 2.27 ± 0.15 | 1.97 ± 0.13 | 2.23 ± 0.099 |
| MSNIVGIEYNRVTNTTS [RPC40] | 3.36 ± 0.22 | 3.33 ± 0.13 | 2.73 ± 0.08 | 2.88 ± 0.096 |
| MSQYQSTMKENKDLSEL [YIL149C/MLP2] | 3 ± 0.16 | 3.12 ± 0.11 |  | 2.76 ± 0.092 |
| MSRDAPIKADKDYSQIL [RPN5] | 2.97 ± 0.1 | 2.44 ± 0.078 | 2.21 ± 0.13 | 2.67 ± 0.062 |
| MSSEIAYSNTNTNTENE [SNF11] |  |  | 2.64 ± 0.24 | 3.04 ± 0.2 |
| MSSVQSKILSQAPSELE [RPS7B] | 2.58 ± 0.08 | 2.72 ± 0.083 | 2.61 ± 0.098 | 2.04 ± 0.1 |
| MSTELTVQSERAFQKQP [RPS11A] | 3.13 ± 0.1 | 2.97 ± 0.099 | 2.98 ± 0.11 | 2.75 ± 0.076 |
| MSVPAIAPRRKRLADGL [DIS3] | 3.37 ± 0.095 | 3.18 ± 0.11 | 3.26 ± 0.078 | 3.11 ± 0.063 |
| MTTFYKCVNCGHRWKEN [RPC11] | 2.82 ± 0.16 | 2.66 ± 0.071 | 2.22 ± 0.15 | 2.74 ± 0.071 |
| MTTTIGSPQMLANEERL [RGR1] |  |  |  | 2.63 ± 0.25 |
| MTVKLESITYQKIMILQ [RGR1] | 2.16 ± 0.071 | 1.73 ± 0.068 | 1.6 ± 0.095 | 2.56 ± 0.076 |
| MTVNDQPIEKNGDKMPL [YJR042W/NUP85] | 2.73 ± 0.066 | 3.04 ± 0.068 | 2.45 ± 0.086 | 3.1 ± 0.042 |
| MVLEATVLVIDNSEYSR [RPN10] | 1.79 ± 0.097 | 1.72 ± 0.12 | 1.85 ± 0.12 | 2.2 ± 0.046 |
